Entries after “also recorded” stand apart in the source; their conditions may differ.
Legend:
P. chlamydospora = test: Pruning wound protection under real vineyard conditions, wounds brushed with P. chlamydospora spores; assay type: in vivo, grapevine; conditions: for fungi re-isolated in vitro from the treated wood: culture-dependent methods
Protocol: In an experiment designed as an attempt to protect pruning wounds from esca fungal infection, a couple of surprising observations were made when immediately after pruning under real vineyard conditions, the fresh wounds were brushed with 50 μl of water (control), or of Blad, the commercial fungicide Switch or copper oxychloride solutions (24 replicates for each treatment), and 24 h, 1 month and 2 months afterwards the pruning wounds were brushed with P. chlamydospora spore suspensions. […] On top of that, the diversity of fungi that could be re-isolated in vitro (using culture-dependent methods) from that wood was also lower. […] This remarks the efficient fungicide activity of the two chemicals on P. chlamyobspora, although this fungus seems to be less affected than other natural endophytes of the grapevine. The applicant's analyses of the mycobiome by metabarcoding using Illumina® next-generation sequencing (NGS) techniques detected only minor changes in some taxa composition and in colonization success of some endophytes in grapevine wood after a single copper application. The copper/systemic fungicides didn't change the mycobiome composition in major ways and didn't even directly advantage the pathogen.

external fungi = test: Fungicides in vitro on potato dextrose agar Petri dishes; assay type: cell-based; conditions: PDA plus individual fungicides
P. cinnamomi = test: Potted young cork oak inoculated with P. cinnamomi, extension of root lesions; assay type: in vivo, Quercus suber; conditions: plants sprayed; for root lesion severity: compared with inoculated control
Protocol: In a separate experiment, potted young cork oak plants (Quercus suber) were inoculated with P. cinnamomi and incubated under greenhouse conditions. The plants were sprayed with potassium phosphonate, salicylic acid, Blad and other compounds/extracts under study. The severity of the infection was assessed by quantifying the extension of plant root lesions.

[1] = test system: Phaeomoniella chlamydospora; test: Relative abundance of P. chlamydospora in wood of potted grapevine cuttings (metabarcoding, greenhouse); assay type: in vivo, Vitis vinifera cv Cabernet Sauvignon; conditions: for relative abundances (%) of P. chlamydospora: fungicide treatment per column
Text: (§1) Wood samples were carefully collected from grapevine rooted cuttings of Vitis vinifera cv Cabernet Sauvignon grown under greenhouse conditions, which underwent different inoculations and fungicide treatments and their mycobiomes identified by metabarcoding using Illumina® next-generation sequencing (NGS) techniques.
On top, barplots grouped by ‘Inoculation’ type; bottom, barplots grouped by ‘Fungicide’ treatment.
In a subsequent experiment (see also below), potted vines were co-inoculated with P. chlamydospora and a skopobiota (spore suspensions from four fungal species naturally occurring in the grapevine microbiome).
C22 and Aureobasidium pullulans AU86. All fungi were maintained in Petri dishes with vents, on potato dextrose agar medium (Difco™), at 25° C., in the dark.

grapevine wood mycobiome = test: Grapevine wood mycobiome composition and networks after fungicide treatments (metabarcoding); assay type: in vivo, Vitis vinifera cv Cabernet Sauvignon; conditions: foliar application / spray
Text: as §1, with “techniques. The barplots represented in FIG. 2 show the relative abundances of grapevine wood taxa in plants subjected to different fungicide treatments and inoculation types.” for “techniques.”
FIG. 4 illustrates the effect of fungicide applications on the grapevine wood relative taxa abundance.
In FIG. 4, the differential heat tree matrix depicts the changes in taxa abundance between different fungicide treatments. The size of the individual nodes in the grey cladogram depicts the number of taxa identified at that taxonomic level. The smaller cladograms show pairwise comparisons between each treatment, with the colour illustrating the log2 fold change: a red node indicates a lower abundance of the taxon in the tissue group stated on the abscissa, than in the tissue group stated on the ordinate. A blue node indicates the opposite.
The networks presented in FIG. 5 show how Blad creates a different link among taxa, when compared with control and other fungicides.

[2] = Early growth at bud break after application onto pruning wound; assay type: in vivo, grapevine; conditions: 50 μl onto the pruning wound, one treatment per plant
Protocol: The photos were taken at the same plant a couple of months later, at bud break. Compare with the natural development state of the vineyard in the background. Twenty-four replicates were prepared for each treatment.

[3] = Growth of nine-week-old carrots in soil with skopobiota-loaded bentochar, with or without Blad spray; assay type: in vivo, carrot cv Nantes
Protocol: (§2) Twelve carrot seeds cv Nantes were sown in soil containing the different combinations of SLB described above, as well as in positive and negative controls, for a total of 12 treatments (see below). Four weeks after sowing, six mycelium plugs of Trichoderma gamsii were added to each treatment tests, with the exception of the ‘negative control’.
Nine weeks after sowing, carrots were examined for three parameters: (1) above-ground growth, (2) number of fully unfolded leaves, and (3) presence of necrotic lesions or browning in roots.
(§3) Similarly to what described in section ‘Effects on the growth of nine-week-old carrots’, the same skopobiota-loaded bentochar treatments were tested also in combination with a weekly spray of Blad on carrot leaves. The tested Blad concentration was 2 mL Blad per L of water.
The same parameters described in ‘Effects on the growth of nine-week-old carrots’ were assessed.

Trichoderma gamsii = test: Root browning and necrotic lesions score in carrot roots; assay type: in vivo, carrot cv Nantes
Protocol: as §2
A combination of factors, in which the presence of Trichoderma gamsii was determinant, induced the presence of root browning and necrotic lesion, as shown in FIG. 32.
Carrot roots of each biological replicate, grown under different treatments, were examined to assess differences in the development of root browning and necrotic lesions.
as §3

[4] = With Blad, weekly spray on leaves, 2 mL Blad per L of water

[Cl-].[Cu+2].[Cu+2].[OH-].[OH-].[OH-] [copper, copper oxychloride]
fungi re-isolated in vitro from the treated wood (P. chlamydospora): nothing but P. chlamydospora could be re-isolated
brown streaking of artificially infected shoots (P. chlamydospora; fresh pruning wounds brushed with 50 μl, then P. chlamydospora spores): darker brown streaking
contamination of PDA Petri dishes containing the fungicide (external fungi): to a minor extent

O=C(O)c1ccccc1O [salicylic acid, reference compound]
root lesion severity (P. cinnamomi): lower than the inoculated control

potassium phosphonate [reference compound]
root lesion severity (P. cinnamomi): lower than the inoculated control

B1: Blad: 173-residue polypeptide (SEQ ID NO: 4), residues 109-281 of Lupinus β-conglutin precursor; main subunit of the 210 kDa oligomer BCO (protein)
chain: ARGARGGLNARGASNPRTYRHISPHESERSERGLNARGPHEGLNTHRLETYRLYSASNARGASNGLYLYSILEARGVALLEGLARGPHEASPGLNARGTHRASNARGLEGLASNLEGLNASNTYRARGILEVALGLPHEGLNSERLYSPRASNTHRLEILELEPRLYSHISSERASPALAASPTYRVALLEVALVALLEASNGLYARGALATHRILETHRILEVALASNPRASPARGARGGLNALATYRASNLEGLTYRGLYASPALALEARGILEPRALAGLYSERTHRSERTYRILELEASNPRASPASPASNGLNLYSLEARGVALVALLYSLEALAILEPRILEASNASNPRGLYTYRPHETYRASPPHETYRPRSERSERTHRLYSASPGLNGLNSERTYRPHESERGLYPHESERARGASNTHRLEGLALATHRPHEASNTHRARGTYRGLGLILEGLNARGILEILELEGLYASNGLASP
relative abundances (%) of P. chlamydospora ([1]; NO-INOCULATION, potted rooted grapevine cuttings, greenhouse): 3.78%
relative abundances (%) of P. chlamydospora ([1]; inoculated with P. chlamydospora + skopobiota at separate locations in the trunk): 1.34%
relative abundances (%) of P. chlamydospora ([1]; inoculated with P. chlamydospora alone): 6.31%
relative abundance of P. chlamydospora ([1]; potted vines co-inoculated with P. chlamydospora and a skopobiota (four fungal species)): 1%
relative abundance of the inoculated pathogen ([1]; potted vines inoculated with P. chlamydospora and sprayed): 6%
changes in the grapevine wood mycobiome (grapevine wood mycobiome): created a different network of interactions in the wood mycobiome; also recorded: induced marked changes in the grapevine wood mycobiome
fungi re-isolated in vitro from the treated wood (P. chlamydospora): many other endophytes
early growth several months after pruning [2]: boost observed in the early growth
root lesion severity versus non-inoculated control (P. cinnamomi): did not differ significantly from the non-inoculated control
root lesion severity (P. cinnamomi): only treatment producing excellent results on the infection levels; also recorded: lower than the inoculated control
root lesion severity (P. cinnamomi; listed as BLAD): lowest lesion severity
Above-ground growth (% of control) Mean ± SD [3, 4]: 98% ± % of control
Number of leaves (% of control) Mean ± SD [3, 4]: 108% ± % of control
number of leaves of carrots ([3]; in words, compared with treatments without Blad): increases the overall number of leaves
above-ground growth of carrots ([3]; in words, weekly spray with Blad): positively affected
Total score of root symptoms (Trichoderma gamsii; With Blad, weekly spray, 2 mL Blad per L of water): 2
root symptomatology compared with the positive control (Trichoderma gamsii; in words): strongly reduced the development of root symptoms
